What all share (experiment): SPR as in Example 1.8
The target of assay [1] is T1, Human FGFR1 D2-His6 (human, UniProt P11362 22-254).
T1 construct: also called D2 domain; F3FR1c-D2
T1 sequence: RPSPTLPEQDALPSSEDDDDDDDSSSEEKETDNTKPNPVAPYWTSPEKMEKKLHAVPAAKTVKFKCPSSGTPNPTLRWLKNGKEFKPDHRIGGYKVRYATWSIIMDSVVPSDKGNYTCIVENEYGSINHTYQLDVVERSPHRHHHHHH
How it is done:
(§1) Binding affinities of anti-FGFR1 antibodies to FGFR1 were measured by Surface Plasmon Resonance (SPR) using a GE Healthcare BIAcore 4000 instrument as follows. Goat anti-human Fc antibody (Jackson ImmunoResearch Laboratories #109-005-098) was first immobilized on BIAcore carboxymethylated dextran CM5 chip using direct coupling to free amino groups following the procedure described by the manufacturer. Antibodies were then captured on the CM5 biosensor chip to achieve approximately 200 response units (RU). Binding measurements were performed using the running HBS-EP+ buffer. A 2-fold dilution series of His-tagged FGFR1 proteins were injected at a flow rate of 30 μl/min at 25° C. Association rates (kₒₙ, per mol/s) and dissociation rates (koff, per s) were calculated using a simple 1:1 Langmuir binding model (Biacore 4000 Evaluation Software). The equilibrium dissociation constant (KD, mol) was calculated as the ratio of koff/kₒₙ.
(§2) To obtain a finer, residue-level mapping of the epitope and to complement the HD exchange data, molecular modelling and manual inspection of the crystal structure of FGFR1 [(Beenken et al. 2012); PDB record 3OJV] was used to select solvent exposed residues within and around the epitope identified by HD exchange. The selected residues were mutated either to alanine (large to small) or to glycine if the selected residue was alanine. In total 35 point mutants were designed, expressed and purified in HEK cells, and tested for binding to mAb #A08 using surface plasmon resonance as described in Example 1.8. The affinity of the antibody for wild-type and each mutant was determined and used to calculate the contribution of each epitope residue to the binding energy.

For assay [2], the target named is T2, FGFR1 D2 point mutant S45A (human, UniProt P11362 22-254).
T2 chain: T1 sequence with S45A
How it is done:
as §1, §2

Assay [3] concerns the target T3, FGFR1 D2 point mutant K51A (human, UniProt P11362 22-254).
T3 chain: T1 sequence with K51A
How it is done: as §1, §2

The target of assay [4] is T4, FGFR1 D2 point mutant A59G (human, UniProt P11362 22-254).
T4 chain: T1 sequence with A59G
How it is done:
as §1, §2

In assay [5] the target is T5, FGFR1 D2 point mutant K86A (human, UniProt P11362 22-254).
T5 chain: T1 sequence with K86A
How it is done: as §1, §2

The target in assay [6] is T6, FGFR1 D2 point mutant D88A (human, UniProt P11362 22-254).
T6 chain: T1 sequence with D88A
As to the method:
as §1, §2

Assay [7] addresses T7, FGFR1 D2 point mutant G92A (human, UniProt P11362 22-254).
T7 chain: T1 sequence with G92A
As to the method:
as §1, §2

For assay [8], the target named is T8, FGFR1 D2 point mutant G93A (human, UniProt P11362 22-254).
T8 chain: T1 sequence with G93A
How it is done: as §1, §2

The target of assay [9] is T9, FGFR1 D2 point mutant T100A (human, UniProt P11362 22-254).
T9 chain: T1 sequence with T100A
How it is done: as §1, §2

Assay [10] concerns the target T10, FGFR1 D2 point mutant I104A (human, UniProt P11362 22-254).
T10 chain: T1 sequence with I104A
As to the method:
as §1, §2

Assay [11] has as its target T11, FGFR1 D2 point mutant D106A (human, UniProt P11362 22-254).
T11 chain: T1 sequence with D106A
How it is done:
as §1, §2

Substitutions are numbered along the chain they refer to.

The term Kd denotes a measure of binding affinity in units of concentration.

B1: mAb #A08 (antibody, V domains shown)
VH: EVQLQESGPGLVKPSGTLSLTCAVSGGSISSNNWWSWVRQPPGKGLEWIGEIYHSGSTSYNPSLKSRVTISVDKSKNQFSLKLNSVTAADTAVYYCARGTDWFDPWGQGTLVTVSS
VL: QAVLTQPPSVSVAPGQTARITCGGNNIGSESVHWYQQKPGQAPVLVVYDDSDRPSGIPERFSGSNSGNTATLTISRVEAGDEADYYCQVWDSTSDHRVFGGGTKLTVL
notes: Only variable domains are tied to the name mAb #A08 (hit); also called #A08 hit; mAb #08
With B1, the Kd is 0.19 nM in assay [1]; 0.21 nM in assay [2]; 0.31 nM in [3]; 3.91 nM in assay [4]; 0.18 nM in assay [5]; 0.16 nM in assay [6]. Further, the dissociation constant Kd in assay [7] came out at 0.28 nM; in assay [8], 0.32 nM; in [9] it was 0.24 nM; in assay [10] it was 0.93 nM; in assay [11], 4.93 nM.

Source of the values: patent US20190367620A1 (Merck KGaA, published 2019).
